From article PMC8360118 (Genes to Cells, 2021)
Values belong to the binder of their own block, whether it stands above or below them. * marks the point of attachment. αMan = OC[C@H]1O[C@H](*)[C@@H](O)[C@@H](O)[C@@H]1O

Biological target: T1, soluble form of bovine POMGNT2 (sPOMGNT2, residues 45–580) (bovine, UniProt Q5NDF2 45-580)
T1 sequence (looked up): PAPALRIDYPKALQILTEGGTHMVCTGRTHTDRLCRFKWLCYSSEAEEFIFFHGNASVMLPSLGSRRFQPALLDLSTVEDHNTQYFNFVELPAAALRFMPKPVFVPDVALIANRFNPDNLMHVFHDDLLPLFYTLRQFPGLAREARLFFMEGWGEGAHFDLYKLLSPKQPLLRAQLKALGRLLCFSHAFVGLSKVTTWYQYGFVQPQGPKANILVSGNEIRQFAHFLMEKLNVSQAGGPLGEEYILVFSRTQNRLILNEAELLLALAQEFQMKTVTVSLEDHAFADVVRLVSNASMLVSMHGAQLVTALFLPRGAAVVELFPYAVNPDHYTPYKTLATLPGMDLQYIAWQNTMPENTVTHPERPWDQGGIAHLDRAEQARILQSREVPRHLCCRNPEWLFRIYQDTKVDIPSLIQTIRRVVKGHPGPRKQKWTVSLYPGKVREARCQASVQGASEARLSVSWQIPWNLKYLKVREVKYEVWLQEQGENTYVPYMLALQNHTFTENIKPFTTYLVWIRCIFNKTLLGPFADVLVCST
Experiment: crystal structure

- binding result: binds
B1: 379Man long peptide (peptide)
peptide: Ac-TIRTRGAIIQT(αMan)PTLGPIQPTR-NH2
SMILES: CC[C@H](C)[C@H](NC(=O)[C@H](C)NC(=O)CNC(=O)[C@H](CCCNC(=N)N)NC(=O)[C@@H](NC(=O)[C@H](CCCNC(=N)N)NC(=O)[C@@H](NC(=O)[C@@H](NC(C)=O)[C@@H](C)O)[C@@H](C)CC)[C@@H](C)O)C(=O)N[C@H](C(=O)N[C@@H](CCC(N)=O)C(=O)N[C@H](C(=O)N1CCC[C@H]1C(=O)N[C@H](C(=O)N[C@@H](CC(C)C)C(=O)NCC(=O)N1CCC[C@H]1C(=O)N[C@H](C(=O)N[C@@H](CCC(N)=O)C(=O)N1CCC[C@H]1C(=O)N[C@H](C(=O)N[C@@H](CCCNC(=N)N)C(N)=O)[C@@H](C)O)[C@@H](C)CC)[C@@H](C)O)[C@@H](C)O[C@H]1O[C@H](CO)[C@@H](O)[C@H](O)[C@@H]1O)[C@@H](C)CC

- binding result: binds
B2: 379Man short peptide (peptide)
peptide: Ac-QT(αMan)PTLGPIQPTR-NH2
SMILES: CC[C@H](C)[C@H](NC(=O)[C@@H]1CCCN1C(=O)CNC(=O)[C@H](CC(C)C)NC(=O)[C@@H](NC(=O)[C@@H]1CCCN1C(=O)[C@@H](NC(=O)[C@H](CCC(N)=O)NC(C)=O)[C@@H](C)O[C@H]1O[C@H](CO)[C@@H](O)[C@H](O)[C@@H]1O)[C@@H](C)O)C(=O)N[C@@H](CCC(N)=O)C(=O)N1CCC[C@H]1C(=O)N[C@H](C(=O)N[C@@H](CCCNC(=N)N)C(N)=O)[C@@H](C)O
